Data: the supplement of paper PMC9112550, “Optimization of the antimicrobial peptide Bac7 by deep mutational scanning” (BMC Biology, 2022)
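Further: peptides expressed intracellularly from a pBAD plasmid library in pooled LB shake-flask culture, induced with 0.3% L-arabinose, DNA abundance read by NGS, three biological replicates, DESeq2 with apeglm shrinkage.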

Each sequence was assayed on Escherichia coli TOP10 (assay: shrunken log2 fold change of peptide-encoding DNA abundance (4.5 h post-induction vs induction); higher = less antimicrobial activity (less host growth inhibition)). Details: time post-induction: 4.5 h; library: site-saturation at positions 5, 18, 19, 20.
In the case of RRIRIRPPRLPRPRPRPSTRPRP, the “shrunken log2 fold change” value is reported as -0.54.
With RRIRTRPPRLPRPRPRPNCTPRP the “shrunken log2 fold change” value was -0.485.
RRIRRRPPRLPRPRPRPLVDPRP was tested, and the “shrunken log2 fold change” value was 0.106.
RRIRCRPPRLPRPRPRPFDQPRP was tested, and the “shrunken log2 fold change” value was -0.136.
In the case of RRIRMRPPRLPRPRPRPNHAPRP, the “shrunken log2 fold change” value is reported as -0.113.
RRIRVRPPRLPRPRPRPIIDPRP was tested, and the “shrunken log2 fold change” value was 0.0493.
RRIRLRPPRLPRPRPRPMRGPRP was tested, and the “shrunken log2 fold change” value was 0.839.
In the case of RRIRRRPPRLPRPRPRPVLIPRP, the “shrunken log2 fold change” value is reported as 0.177.
With RRIRIRPPRLPRPRPRPWRHPRP the “shrunken log2 fold change” value was -0.083.
For RRIRHRPPRLPRPRPRPILTPRP, the “shrunken log2 fold change” value was -0.201.
RRIRMRPPRLPRPRPRPRAPPRP was tested, and the “shrunken log2 fold change” value was 1.18.
In the case of RRIRIRPPRLPRPRPRPKVEPRP, the “shrunken log2 fold change” value is reported as 0.195.
In the case of RRIRGRPPRLPRPRPRPSHPPRP, the “shrunken log2 fold change” value is reported as 0.372.
RRIRLRPPRLPRPRPRPAEMPRP was tested, and the “shrunken log2 fold change” value was -0.111.
RRIRPRPPRLPRPRPRPKFIPRP was tested, and the “shrunken log2 fold change” value was -0.308.
With RRIRQRPPRLPRPRPRPWCYPRP the “shrunken log2 fold change” value was -0.466.
With RRIRQRPPRLPRPRPRPEYSPRP the “shrunken log2 fold change” value was -0.191.
RRIRERPPRLPRPRPRPQQHPRP was tested, and the “shrunken log2 fold change” value was -0.301.
With RRIRCRPPRLPRPRPRPFTEPRP the “shrunken log2 fold change” value was -0.28.
With RRIRFRPPRLPRPRPRPNQVPRP the “shrunken log2 fold change” value was -1.05.
In the case of RRIRGRPPRLPRPRPRPGDFPRP, the “shrunken log2 fold change” value is reported as 0.00388.
RRIRNRPPRLPRPRPRPVGGPRP was tested, and the “shrunken log2 fold change” value was 0.279.
RRIRCRPPRLPRPRPRPIIEPRP was tested, and the “shrunken log2 fold change” value was -0.851.
RRIRHRPPRLPRPRPRPLEHPRP was tested, and the “shrunken log2 fold change” value was -0.00318.
For RRIRLRPPRLPRPRPRPNSKPRP, the “shrunken log2 fold change” value was -0.706.
RRIRQRPPRLPRPRPRPWGEPRP was tested, and the “shrunken log2 fold change” value was -0.0675.
In the case of RRIRTRPPRLPRPRPRPVCVPRP, the “shrunken log2 fold change” value is reported as 0.182.
In the case of RRIRVRPPRLPRPRPRPKPLPRP, the “shrunken log2 fold change” value is reported as 0.196.
RRIRRRPPRLPRPRPRPERCPRP was tested, and the “shrunken log2 fold change” value was 0.322.
RRIRVRPPRLPRPRPRPFFLPRP was tested, and the “shrunken log2 fold change” value was -0.294.
With RRIRPRPPRLPRPRPRPWESPRP the “shrunken log2 fold change” value was 0.0303.
In the case of RRIRNRPPRLPRPRPRPHQHPRP, the “shrunken log2 fold change” value is reported as -0.654.
RRIRIRPPRLPRPRPRPEWMPRP was tested, and the “shrunken log2 fold change” value was -0.0985.
RRIRCRPPRLPRPRPRPLLDPRP was tested, and the “shrunken log2 fold change” value was 0.0618.
In the case of RRIRNRPPRLPRPRPRPWDTPRP, the “shrunken log2 fold change” value is reported as -0.0124.
With RRIRHRPPRLPRPRPRPQSGPRP the “shrunken log2 fold change” value was 0.165.
In the case of RRIRQRPPRLPRPRPRPFVDPRP, the “shrunken log2 fold change” value is reported as -0.00879.
RRIRPRPPRLPRPRPRPNHTPRP was tested, and the “shrunken log2 fold change” value was -0.21.
RRIRIRPPRLPRPRPRPWAYPRP was tested, and the “shrunken log2 fold change” value was 0.0382.
RRIRNRPPRLPRPRPRPALDPRP was tested, and the “shrunken log2 fold change” value was 0.113.
RRIRRRPPRLPRPRPRPVYLPRP was tested, and the “shrunken log2 fold change” value was -0.173.
In the case of RRIRQRPPRLPRPRPRPYDHPRP, the “shrunken log2 fold change” value is reported as -0.534.
For RRIRTRPPRLPRPRPRPGKSPRP, the “shrunken log2 fold change” value was -0.402.
With RRIRLRPPRLPRPRPRPPARPRP the “shrunken log2 fold change” value was 0.789.
In the case of RRIRNRPPRLPRPRPRPNNEPRP, the “shrunken log2 fold change” value is reported as -0.208.
With RRIRYRPPRLPRPRPRPQLIPRP the “shrunken log2 fold change” value was -0.3.
For RRIRARPPRLPRPRPRPMDWPRP, the “shrunken log2 fold change” value was 0.341.
With RRIRERPPRLPRPRPRPLPSPRP the “shrunken log2 fold change” value was -0.0852.
With RRIRDRPPRLPRPRPRPFRHPRP the “shrunken log2 fold change” value was -0.125.
In the case of RRIRNRPPRLPRPRPRPNVVPRP, the “shrunken log2 fold change” value is reported as -0.122.
For RRIRARPPRLPRPRPRPTNMPRP, the “shrunken log2 fold change” value was -0.275.
RRIRRRPPRLPRPRPRPIYVPRP was tested, and the “shrunken log2 fold change” value was -0.114.
With RRIRERPPRLPRPRPRPFDWPRP the “shrunken log2 fold change” value was 0.0619.
In the case of RRIRQRPPRLPRPRPRPNPVPRP, the “shrunken log2 fold change” value is reported as -0.117.
In the case of RRIRWRPPRLPRPRPRPPTTPRP, the “shrunken log2 fold change” value is reported as 0.277.
In the case of RRIRVRPPRLPRPRPRPDAPPRP, the “shrunken log2 fold change” value is reported as 0.422.
RRIRFRPPRLPRPRPRPRSHPRP was tested, and the “shrunken log2 fold change” value was -0.181.
In the case of RRIRERPPRLPRPRPRPRKCPRP, the “shrunken log2 fold change” value is reported as -0.0265.
For RRIRIRPPRLPRPRPRPWGFPRP, the “shrunken log2 fold change” value was -0.185.
For RRIRHRPPRLPRPRPRPRMVPRP, the “shrunken log2 fold change” value was -0.0236.
RRIRMRPPRLPRPRPRPMFIPRP was tested, and the “shrunken log2 fold change” value was -0.403.
In the case of RRIRPRPPRLPRPRPRPGVLPRP, the “shrunken log2 fold change” value is reported as 0.219.
With RRIRKRPPRLPRPRPRPVEEPRP the “shrunken log2 fold change” value was 0.695.
For RRIRYRPPRLPRPRPRPYSLPRP, the “shrunken log2 fold change” value was -0.335.
RRIRWRPPRLPRPRPRPLKEPRP was tested, and the “shrunken log2 fold change” value was -0.0713.
For RRIRYRPPRLPRPRPRPPLRPRP, the “shrunken log2 fold change” value was -0.151.
RRIRFRPPRLPRPRPRPDFCPRP was tested, and the “shrunken log2 fold change” value was -0.0235.
In the case of RRIRFRPPRLPRPRPRPQENPRP, the “shrunken log2 fold change” value is reported as 0.133.
In the case of RRIRTRPPRLPRPRPRPWNNPRP, the “shrunken log2 fold change” value is reported as -0.256.
In the case of RRIRWRPPRLPRPRPRPDTFPRP, the “shrunken log2 fold change” value is reported as -0.0255.
In the case of RRIRQRPPRLPRPRPRPQPDPRP, the “shrunken log2 fold change” value is reported as -0.00546.
For RRIRQRPPRLPRPRPRPHWSPRP, the “shrunken log2 fold change” value was -0.161.
With RRIRWRPPRLPRPRPRPDYCPRP the “shrunken log2 fold change” value was -0.0321.
In the case of RRIRKRPPRLPRPRPRPPKDPRP, the “shrunken log2 fold change” value is reported as 0.498.
RRIRPRPPRLPRPRPRPSLMPRP was tested, and the “shrunken log2 fold change” value was -0.155.
